Measurements taken from patent US8629107B2, “Genes and proteins associated with angiogenesis and uses thereof” (National Jewish Health, priority 2005, dated 2014).

Experiments:
[1] = system: MCA102 fibrosarcomas; assay: MCA102 fibrosarcomas produced in mice; assay type: in vivo; settings: unpublished observation
[2] = system: vessel formation and infiltration into Matrigel plugs; assay: Matrigel plug implantation assay; assay type: in vivo, C57BL/6 mice; settings: 1 μg/ml with bFGF 50 ng/ml vs bFGF alone; subcutaneous, C57BL/6 mice, day 10
Description: The effect of MAGP-2 on vessel formation and infiltration into Matrigel plugs implanted into genetically normal mice was determined as described (Albig et al, 2006). Briefly, phenol red-free Matrigel (BD biosciences, Bedford, Mass.) was mixed with PBS (diluent), bFGF (50 or 300 ng/ml; R&D Systems, Minneapolis, Minn.), or recombinant MAGP-2 (1 μg/ml) together with bFGF (50 ng/ml), and the resulting mixtures were injected twice subcutaneously in the ventral groin area (400 μl/injection) of C57BL/6 mice. The mice were sacrificed 10 days post-implantation and the Matrigel plugs were dissected, fixed overnight in 10% formalin, and sectioned in the National Jewish Histology Laboratory. Afterward, Masson's trichrome staining was performed to visualize infiltrating vessels, which were quantified under a light microscope by determining the average number of vessels present in 5 random fields (200× magnification). Only those fields that contained at least one vessel in the area underlying the skin were tallied. Two mice were used per experimental condition and this experiment was performed three times in its entirety. All animal studies were performed according to protocol procedures approved by the Animal Care and Use Committee at National Jewish Medical and Research Center.
The inventors tested this hypothesis by utilizing the Matrigel plug implantation assay, which monitors the ability of various angiogenic agents to alter vessel formation and infiltration into Matrigel plugs implanted subcutaneously into normal mice. […] MAGP-2 purity was monitored by coomassie staining, and by immunoblotting with anti-FLAG M2 monoclonal antibodies (FIG. 2A; right panel). rMAGP-2 (1 μg/ml) stimulated angiogenic sprouting of quiescent MB114 cell monolayers (FIG. 2A; left panel). […] Afterward, the Matrigel plugs were fixed, sectioned, and stained with Masson's trichrome to visualize infiltrating blood vessels (FIG. 2B; right panels; arrows denote blood vessels), which were quantified by manual counting under a light microscope. […]

B1: MAGP-2: secreted glycoprotein (25 kDa); stably expressed in MB114 cells by bicistronic retroviral transduction, Myc-His tagged (protein)
chain: QRGDDVPETFTDDPNLVNDPSTDDTALADITPSTDDLAGDKNATAECRDEKFACTRLYSVHRPVRQCVHQSCFTSLRRMYIINNEICSRLVCKEHEAMKDELCRQMAGLPPRRLRRSNYFRLPPCENMNLQRPDGL
modifications: left off: small tags and cut ends
notes: secreted glycoprotein (25 kDa); stably expressed in MB114 cells by bicistronic retroviral transduction, Myc-His tagged
[1]
  growth of MCA102 fibrosarcomas produced in mice: significantly increase
  vascularization of MCA102 fibrosarcomas produced in mice: significantly increase

B2: rMAGP-2: recombinant FLAG-tagged MAGP-2 purified from bacterial cell extracts by anti-FLAG chromatography (protein, UniProt Q9QZJ6 29-164, looked up)
Microfibrillar-associated …: B1 chain
modifications: FLAG tag
notes: recombinant FLAG-tagged MAGP-2 purified from bacterial cell extracts by anti-FLAG chromatography
[2]
  development and infiltration of vessels into Matrigel plugs: significantly increased
